This is an account of results in article PMC3523363 (Journal of medicinal chemistry, 2012).

For data set [1] the following is noted: in DMF; cited from earlier work.
The next data set has as its target EGFR (Homo sapiens, UniProt P00533). Briefly: Surface plasmon resonance. Type of data set: binding. To be noted: EGFR immobilized on CM5 chip, 25 °C.
A short description of the next data set: Spectroscopic studies. Type of data set: physicochemical. The note with it: in DMF; for фF (fluorescence quantum yield): calculated using ZnPc (Фf = 0.17) as the standard; for Emission: excitation at 670 nm.
The subject of the next data set is A431 cells. Briefly: Phototoxicity, Cell Titer Blue assay. The format is cell-based, human. The note with it: 24 h.
The next data set deals with Vero cells. In words: Phototoxicity, Cell Titer Blue assay. Type of data set: cell-based, cercopithecus aethiops. To be noted: 24 h.
The next data set concerns HEp2 cells. Briefly: Phototoxicity, Cell Titer Blue assay. To be noted: 24 h. Type of data set: cell-based, human.
The test system of another data set is HT-29 cells. In words: Phototoxicity, Cell Titer Blue assay. Type of data set: cell-based, human. The note with it: 24 h.
For the next data set, the system named is A431 s.c. tumors. In words: In vivo near-IR fluorescence imaging of s.c. tumor xenografts. More on the design: species or system nude mice. The note with it: 10 mg/kg iv, up to 96 h.
The test system of another data set is HT-29 s.c. tumors. Described as above. More on the design: species or system nude mice. To be noted: HT-29 s.c. tumor, 10 mg/kg iv, up to 96 h.

For the compound `[Zn+2].c1ccc2c(c1)-c1nc-2nc2[n-]c(nc3nc([n-]c4nc(n1)-c1ccccc1-4)-c1ccccc1-3)c1ccccc21` [ZnPc], the “Фf (fluorescence quantum yield) of the reference” value in data set [1] is 0.17.

Take GYHWYGYTPQNVI [EGFR-L2]: the “relative binding affinity to EGFR (SPR)” value with EGFR was “higher affinity for EGFR than EGFR-L1”.

With `CC[C@H](C)[C@H](NC(=O)[C@@H](NC(=O)[C@H](CC(N)=O)NC(=O)[C@H](CCC(N)=O)NC(=O)[C@@H]1CCCN1C(=O)[C@@H](NC(=O)[C@H](Cc1ccc(O)cc1)NC(=O)CNC(=O)[C@H](Cc1ccc(O)cc1)NC(=O)[C@H](Cc1c[nH]c2ccccc12)NC(=O)[C@H](Cc1c[nH]cn1)NC(=O)[C@H](Cc1ccc(O)cc1)NC(=O)CNC(=O)COCC(=O)Nc1ccc(Oc2ccc3c4nc5nc(nc6[nH]c(nc7nc(nc([nH]4)c3c2)-c2cc(C(C)(C)C)ccc2-7)c2ccc(C(C)(C)C)cc62)-c2ccc(C(C)(C)C)cc2-5)cc1)[C@@H](C)O)C(C)C)C(N)=O` [Pc 4b], in the data set “Spectroscopic studies”, the “Stokes' Shift” value amounted to 4 nm, the ε is 4.85 M⁻¹ cm⁻¹, the “фF (fluorescence quantum yield)” value is 0.10 and the Emission worked out at 681 nm. In “Spectroscopic studies” (Q band), this compound showed an Absorption of 677 nm.

`CC(C)C[C@H](NC(=O)CCOCCOCCOCCNC(=O)COCC(=O)Nc1ccc(Oc2ccc3c4nc5nc(nc6[nH]c(nc7nc(nc([nH]4)c3c2)-c2cc(C(C)(C)C)ccc2-7)c2ccc(C(C)(C)C)cc62)-c2ccc(C(C)(C)C)cc2-5)cc1)C(=O)N[C@@H](C)C(=O)N[C@@H](CCCNC(=N)N)C(=O)N[C@@H](CC(C)C)C(=O)N[C@@H](CC(C)C)C(=O)N[C@H](C(N)=O)[C@@H](C)O` [Pc 5b] registered a ε in the data set “Spectroscopic studies” of 5.27 M⁻¹ cm⁻¹. In the data set “Spectroscopic studies”, the “фF (fluorescence quantum yield)” value is 0.11. The compound further had an Emission in “Spectroscopic studies” of 682 nm. Further, the IC50 in the data set with A431 cells, in the data set on Vero cells, with HEp2 cells and with HT-29 cells was over 100 µM throughout. Moreover, the “course of tumor fluorescence signal” value was “continued to increase to 96 h” with A431 s.c. tumors and “declined from 24 to 96 h” in the data set with HT-29 s.c. tumors.
